The values below come from article PMC4027205, “TstI, a Type II restriction–modification protein with DNA recognition, cleavage and methylation functions in a single polypeptide”.

Data set [1] deals with T1, TstI restriction-modification protein (His-tagged) (Thermus scotoductus RFL1 (printed as T. scotoductus RFL1)) (UniProt A6H2J1).
T1 sequence: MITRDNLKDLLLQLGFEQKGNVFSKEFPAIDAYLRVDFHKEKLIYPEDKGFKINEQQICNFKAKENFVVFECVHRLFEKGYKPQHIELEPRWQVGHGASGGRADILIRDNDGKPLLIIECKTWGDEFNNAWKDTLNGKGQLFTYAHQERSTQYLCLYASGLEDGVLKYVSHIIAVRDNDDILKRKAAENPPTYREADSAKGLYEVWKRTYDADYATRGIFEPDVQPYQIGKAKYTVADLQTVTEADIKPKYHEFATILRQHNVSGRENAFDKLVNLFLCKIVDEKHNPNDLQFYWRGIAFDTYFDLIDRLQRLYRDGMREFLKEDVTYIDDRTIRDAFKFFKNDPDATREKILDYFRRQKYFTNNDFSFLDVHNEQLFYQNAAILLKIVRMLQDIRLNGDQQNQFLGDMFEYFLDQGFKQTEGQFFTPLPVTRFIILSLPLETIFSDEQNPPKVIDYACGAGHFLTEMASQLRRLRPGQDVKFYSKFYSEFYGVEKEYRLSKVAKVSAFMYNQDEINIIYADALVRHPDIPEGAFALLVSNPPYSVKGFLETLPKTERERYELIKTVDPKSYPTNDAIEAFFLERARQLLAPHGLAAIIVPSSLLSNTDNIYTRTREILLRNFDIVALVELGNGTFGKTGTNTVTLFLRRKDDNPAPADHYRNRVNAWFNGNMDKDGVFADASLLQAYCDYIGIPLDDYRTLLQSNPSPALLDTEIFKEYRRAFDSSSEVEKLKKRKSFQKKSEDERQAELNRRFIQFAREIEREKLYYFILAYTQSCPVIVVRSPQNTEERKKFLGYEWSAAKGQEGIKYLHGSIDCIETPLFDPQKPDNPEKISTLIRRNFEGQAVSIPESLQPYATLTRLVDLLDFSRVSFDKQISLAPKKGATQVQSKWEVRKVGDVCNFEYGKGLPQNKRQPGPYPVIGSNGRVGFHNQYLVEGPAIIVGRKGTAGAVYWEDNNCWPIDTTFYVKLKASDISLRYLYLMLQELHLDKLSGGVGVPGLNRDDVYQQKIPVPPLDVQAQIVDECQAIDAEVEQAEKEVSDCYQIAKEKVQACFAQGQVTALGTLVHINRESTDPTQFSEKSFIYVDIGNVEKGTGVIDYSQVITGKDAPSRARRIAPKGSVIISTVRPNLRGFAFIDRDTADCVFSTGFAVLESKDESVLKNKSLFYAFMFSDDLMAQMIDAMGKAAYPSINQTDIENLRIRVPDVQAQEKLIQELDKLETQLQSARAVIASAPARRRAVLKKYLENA
The data set is described as follows: cleavage kinetics: kobs vs enzyme concentration, hyperbolic fit (no direct binding read-out). Particulars: EMSA conditions not given (data not shown); cleavage in buffer R (composition not in material), 37 C. A general note: Mobility shift assays separate free from complexed probe on a gel.

Data set [2] addresses TstI RM protein (His-tagged form) (Thermus scotoductus RFL1). The data set is described as follows: AUC; sedimentation equilibrium; TstI 0.1-0.3 mg/ml in 20 mM Tris-HCl pH 8.4, 100 mM KCl, 10 mM MgCl2, 20°C; 5000, 6000 and 7500 rpm; global fit to a single ideal species.
The target of data set [3] is T2, TstI restriction-modification protein (His-tagged) (Thermus scotoductus RFL1 (printed as T. …, UniProt A6H2J1 1-1251)).
T2 sequence: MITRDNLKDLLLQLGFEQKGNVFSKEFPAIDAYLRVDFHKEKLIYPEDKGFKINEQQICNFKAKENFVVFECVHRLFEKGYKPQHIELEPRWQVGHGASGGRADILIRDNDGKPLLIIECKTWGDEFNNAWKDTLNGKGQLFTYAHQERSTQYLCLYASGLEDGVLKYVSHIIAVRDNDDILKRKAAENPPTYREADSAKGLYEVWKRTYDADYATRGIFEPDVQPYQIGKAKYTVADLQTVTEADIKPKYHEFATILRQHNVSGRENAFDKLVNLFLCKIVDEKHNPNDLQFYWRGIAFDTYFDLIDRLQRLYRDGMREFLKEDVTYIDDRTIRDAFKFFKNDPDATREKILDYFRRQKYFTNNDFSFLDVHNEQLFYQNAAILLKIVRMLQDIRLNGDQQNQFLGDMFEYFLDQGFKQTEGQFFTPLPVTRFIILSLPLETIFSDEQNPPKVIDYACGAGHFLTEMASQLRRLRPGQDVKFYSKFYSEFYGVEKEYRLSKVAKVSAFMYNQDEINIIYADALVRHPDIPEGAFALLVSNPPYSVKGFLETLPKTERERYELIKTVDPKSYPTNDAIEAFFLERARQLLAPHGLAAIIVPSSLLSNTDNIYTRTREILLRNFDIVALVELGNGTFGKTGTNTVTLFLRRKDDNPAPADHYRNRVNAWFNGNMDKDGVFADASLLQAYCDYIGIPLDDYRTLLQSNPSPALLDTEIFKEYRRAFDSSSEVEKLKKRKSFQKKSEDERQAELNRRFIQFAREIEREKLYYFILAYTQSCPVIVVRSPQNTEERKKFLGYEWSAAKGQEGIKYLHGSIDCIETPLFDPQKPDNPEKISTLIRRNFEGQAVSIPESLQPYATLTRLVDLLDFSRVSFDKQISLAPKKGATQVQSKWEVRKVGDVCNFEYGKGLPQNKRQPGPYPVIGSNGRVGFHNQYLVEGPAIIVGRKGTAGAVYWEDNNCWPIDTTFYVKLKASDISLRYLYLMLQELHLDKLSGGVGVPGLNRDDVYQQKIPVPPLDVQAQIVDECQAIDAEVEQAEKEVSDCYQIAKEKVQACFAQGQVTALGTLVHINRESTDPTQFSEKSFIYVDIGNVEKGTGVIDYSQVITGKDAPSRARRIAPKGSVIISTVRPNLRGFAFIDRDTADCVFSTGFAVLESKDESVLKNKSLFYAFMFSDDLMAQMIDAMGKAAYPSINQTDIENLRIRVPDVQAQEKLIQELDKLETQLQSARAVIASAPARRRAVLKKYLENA
The data set is described as follows: EMSA; data not shown; EMSA conditions not given (data not shown); cleavage in buffer R (composition not in material), 37 C. Particulars: protein: recombinant; tags: N-terminal His tag (pET15b, 20 extra aa); chain copies: 4.

As to pTST1, in data set [1], the K half amounted to 19 nM. Turning to “TstI RM protein (His-tagged form) (enzyme)”, the stoichiometry N (usually the number of molecules, sites or subunits per partner or assembly) in data set [2] came out at 4.

B1: 50NS (dsDNA)
DNA 1: CTGTCTGAGATACACTCGTCTCGAACAAACCATCCAGTCTCTGACTATGT
DNA 2: ACATAGTCAGAGACTGGATGGTTTGTTCGAGACGAGTGTATCTCAGACAG
Consider B1, for which the binding result in data set [3] was “binds”.
